Experimental data: the supplement of paper PMC10567573

B1: NP_006221.1 (parent)
chain: CQPISFSGFGAEDDDLGGLGLGP
B2: ZBTB22 (parent)
chain: RPFDCPVCNKKFKMKHHLTEHMKT

Variants of: B1
Assay: protein stability index of a GFP-peptide fusion (GPS, HEK-293T) (PSI 1-6); higher = more stable
Settings: c terminus: native

Protein stability index: each site, then its substitutions
G17: K 2.08, Y 2.15, C 2.2, H 2.17, Q 2.12, V 1.99, T 2.1, L 2.2, S 2.26, R 1.52, E 2.36, W 2.46, D 2.33, F 2.08, A 2.16, P 2.05, M 1.7, I 1.93, N 2.36
D15: Q 2.67, R 2.13, W 2.44, G 2.57, L 2.41, P 2.38, V 2.29, T 2.52, I 2.4, M 2.47, H 2.08, N 2.18, A 2.28, E 2.15, F 2.32, S 2.38, C 2.18, K 2.2, Y 2.35
G22: V 2.11, W 2.46, Y 2.59, A 2.29, F 2.4, D 2.15, R 3.32, H 2.8, S 2.1, M 2.32, N 3.35, E 2.13, Q 2.27, L 2.46, I 2.37, T 2.22, C 2.25, P 4.39, K 4.15
D13: H 2.2, W 2.31, S 2.41, Y 2.02, Q 2.21, L 2.27, T 2.28, C 2.42, A 2.46, F 2.54, E 2.22, I 2.5, R 2.04, G 2.53, K 1.93, P 2.08, M 2.24, N 2.2, V 2.28
G20: E 2.81, N 3.93, T 3.68, Y 2.83, P 3.11, L 3.54, Q 2.69, A 2.29, C 2.51, S 2.69, M 2.77, H 2.93, I 3.2, V 3.37, W 3.19, R 3.93, F 3.81, D 2.58, K 4.31
F9: N 2.87, L 2.23, S 2.56, Y 2.01, I 2.35, A 2.58, E 2.98, D 3.32, Q 2.54, K 2.4, R 2.04, V 2.25, H 2.42, T 2.7, C 2.36, M 2.41, W 2.53, G 3.01, P 3.23
E12: Y 2.12, F 2.17, V 2.3, H 2.48, M 2.25, R 2.31, L 1.88, I 1.94, D 2.22, A 2.32, S 2.44, P 2.07, T 2.06, G 2.5, C 2.43, K 2.17, N 2.32, W 2.29
L21: V 3.37, T 3.94, M 3.33, G 4.98, E 5.34, W 4.11, Y 4.14, A 4.88, H 4.76, S 5.12, I 3.46, Q 4.85, P 5.09, K 3.95, N 4.89, D 5.19, F 4, C 3.02, R 2.74
G8: V 2.16, H 1.98, L 1.97, Q 1.87, N 2.24, W 2.19, R 2.52, K 2.48, S 2.15, M 2.23, T 2.34, Y 2.31, I 2.06, P 3.55
L19: E 2.49, Y 2.31, D 2.39, A 2.72, M 2.29, V 2.11, W 2.78, T 3.02, Q 2.39, C 2.52, P 2.7, G 2.87, S 2.91, K 1.99, N 2.54, H 2.96, F 2.51, I 2.13
G18: N 2.16, K 1.93, V 2.17, H 1.99, Y 2.18, D 2.19, C 2.35, P 1.99, E 2.42, T 2.23, W 2.57, Q 2, M 1.99, L 2.24, R 2.31, A 2.13, F 2.24, I 2.18, S 2.24
D14: G 2.13, P 2.19, S 2.05, Y 2.12, L 2.44, F 2.51, W 2.48, T 2.18, A 2.23, N 2.33, C 2.12, Q 2.11, E 2.17, M 2.29, K 2.46, R 1.99, I 2.21, H 2.27, V 2.12
G10: F 2.06, I 2.08, T 1.91, K 1.96, Q 2.3, P 1.83, H 1.99, W 1.9, M 2.29, R 2.21, L 2.56, S 1.95, V 2.2, A 2.16, D 2.51, E 2.08, N 2.04, C 2.04, Y 1.94
L16: D 2.22, R 2.18, I 2.21, S 2.28, F 2.23, G 2.21, K 2.25, A 2.59, V 2.36, W 2.25, H 2.26, N 2.07, Q 2.27, P 2.15, C 2.34, E 1.85, Y 2.27, T 2.35, M 2.45
P23: I 2.95, D 5.01, T 3.8, E 4.96, Q 4.25, Y 2.25, W 2.73, N 4.72, S 4.5, L 3.57, A 2.17, R 2.95, M 2.91, V 3.45, C 3.17, K 4.66, F 3.04, H 3.99, G 2.25
A11: L 1.81, S 2.22, P 2.17, G 2.36, T 2.26, K 2.09, I 2.65, F 1.95, C 2.08, Y 2.06, Q 2.32, W 2.06, R 2.32, E 2.02, N 2.09, H 2.37, V 2.33, D 2.37, M 2.04

Variants of: B2
Assay: as above
Settings: c terminus: a fixed tail appended

Protein stability index, by site and new letter:
P2: Q 2.76, K 2.83, G 2.46, D 3.24, L 2.3, I 2.37, T 3.84, V 2.12, S 3.39, C 2.19, F 2.72, M 2.46, A 2.83, H 2.97, N 2.34, W 2.52, E 3.26, R 2.12
R1: F 2.38, Q 2.8, V 2.74, A 3, K 2.74, G 3.08, Y 2.38, I 2.87, P 3.17, N 2.64, T 2.96, W 2.09, M 2.71, D 3.31, C 3.18, L 2.35, S 2.71, E 3.67, H 2.88
